Test results as given in US20100239571A1 (Seagen, published 2010).

T1: CD30 surface antigen expressed on Karpas-299 (human, UniProt P28908 19-595)
T1 construct: whole, on cells; also called human CD30
T1 sequence (looked up): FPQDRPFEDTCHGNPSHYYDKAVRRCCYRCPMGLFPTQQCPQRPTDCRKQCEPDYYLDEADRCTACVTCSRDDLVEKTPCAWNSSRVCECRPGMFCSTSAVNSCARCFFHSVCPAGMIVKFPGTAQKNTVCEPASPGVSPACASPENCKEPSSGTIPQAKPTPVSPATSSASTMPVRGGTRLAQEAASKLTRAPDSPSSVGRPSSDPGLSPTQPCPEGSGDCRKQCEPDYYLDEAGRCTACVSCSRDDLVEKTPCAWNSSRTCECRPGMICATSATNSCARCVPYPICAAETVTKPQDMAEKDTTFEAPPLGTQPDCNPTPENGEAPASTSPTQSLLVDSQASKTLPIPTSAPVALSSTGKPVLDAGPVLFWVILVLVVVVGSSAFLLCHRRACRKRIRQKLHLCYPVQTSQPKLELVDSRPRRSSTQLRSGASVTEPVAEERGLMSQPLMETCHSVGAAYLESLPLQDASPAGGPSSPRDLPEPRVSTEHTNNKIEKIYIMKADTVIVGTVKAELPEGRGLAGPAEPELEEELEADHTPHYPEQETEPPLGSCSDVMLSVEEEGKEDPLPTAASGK

B1: hAC10 HALA (antibody, human IgG1, kappa, V domains shown)
VH: QVQLVQSGAEVKKPGASVKVSCKASGYTFTDYYITWVRQAPGQGLEWMGWIYPGSGNTKYNEKFKGRVTMTVDTSISTAYMELSRLRSDDTAVYFCANYGNYWFAYWGQGTLVTVSS
VL: DIVMTQSPDSLAVSLGERATINCKASQSVDFDGDSYMNWYQQKPGQPPKLLIYAASNLESGVPDRFSGSGSGTDFTLTISSLQAEDVAVYYCQQSNEDPWTFGQGTKVEIKR
notes: The name HALA is read as heavy variant A plus light variant A; also called humanized AC10 variant HALA; hVH A + hVL A
B2: hAC10 HALD (antibody, human IgG1, kappa, V domains shown)
VH: QVQLVQSGAEVKKPGASVKVSCKASGYTFTDYYITWVRQAPGQGLEWMGWIYPGSGNTKYNEKFKGRVTMTVDTSISTAYMELSRLRSDDTAVYFCANYGNYWFAYWGQGTLVTVSS
VL: DIVMTQSPDSLAVSLGERATINCKSSQSVDFDGDSYLNWYQQKPGQPPKLLIYAASNLESGVPDRFSGSGSGTDFTLTISSLQAEDVAVYYCQQSNEDPWTFGQGTKVEIKR
notes: Human IgG1 / kappa; also called humanized AC10 variant HALD; hVH A + hVL D
B3: hAC10 HBLA (antibody, human IgG1, kappa, V domains shown)
VH: QVQLVQSGAEVKKPGASVKVSCKASGYTFTDYYITWVRQAPGQGLEWMGWIYPGSGNTKYNEKFKGRVTMTRDTSISTAYMELSRLRSDDTAVYFCANYGNYWFAYWGQGTLVTVSS
VL: DIVMTQSPDSLAVSLGERATINCKASQSVDFDGDSYMNWYQQKPGQPPKLLIYAASNLESGVPDRFSGSGSGTDFTLTISSLQAEDVAVYYCQQSNEDPWTFGQGTKVEIKR
notes: Human IgG1 / kappa; also called humanized AC10 variant HBLA; hVH B + hVL A
B4: hAC10 HDLA (antibody, human IgG1, kappa, V domains shown)
VH: QVQLVQSGAEVKKPGASVKVSCKASGYTFTDYYITWVRQAPGQGLEWMGWIYPGSGNTKYNEKFKGRVTMTRDTSISTAYMELSRLRSDDTAVYYCANYGNYWFAYWGQGTLVTVSS
VL: DIVMTQSPDSLAVSLGERATINCKASQSVDFDGDSYMNWYQQKPGQPPKLLIYAASNLESGVPDRFSGSGSGTDFTLTISSLQAEDVAVYYCQQSNEDPWTFGQGTKVEIKR
notes: Human IgG1 / kappa; also called humanized AC10 variant HDLA; antibody HDLA
B5: hAC10 HALB (antibody, human IgG1, kappa, V domains shown)
VH: QVQLVQSGAEVKKPGASVKVSCKASGYTFTDYYITWVRQAPGQGLEWMGWIYPGSGNTKYNEKFKGRVTMTVDTSISTAYMELSRLRSDDTAVYFCANYGNYWFAYWGQGTLVTVSS
VL: DIVMTQSPDSLAVSLGERATINCKSSQSVDFDGDSYMNWYQQKPGQPPKLLIYAASNLESGVPDRFSGSGSGTDFTLTISSLQAEDVAVYYCQQSNEDPWTFGQGTKVEIKR
notes: Human IgG1 / kappa; also called humanized AC10 variant HALB; hVH A + hVL B
B6: hAC10 HCLA (antibody, human IgG1, kappa, V domains shown)
VH: QVQLVQSGAEVKKPGASVKVSCKASGYTFTDYYITWVRQAPGQGLEWMGWIYPGSGNTKYNEKFKGRVTMTVDTSISTAYMELSRLRSDDTAVYYCANYGNYWFAYWGQGTLVTVSS
VL: DIVMTQSPDSLAVSLGERATINCKASQSVDFDGDSYMNWYQQKPGQPPKLLIYAASNLESGVPDRFSGSGSGTDFTLTISSLQAEDVAVYYCQQSNEDPWTFGQGTKVEIKR
notes: Human IgG1 / kappa; also called humanized AC10 variant HCLA; hVH C + hVL A
B7: hAC10 HALC (antibody, human IgG1, kappa, V domains shown)
VH: QVQLVQSGAEVKKPGASVKVSCKASGYTFTDYYITWVRQAPGQGLEWMGWIYPGSGNTKYNEKFKGRVTMTVDTSISTAYMELSRLRSDDTAVYFCANYGNYWFAYWGQGTLVTVSS
VL: DIVMTQSPDSLAVSLGERATINCKASQSVDFDGDSYLNWYQQKPGQPPKLLIYAASNLESGVPDRFSGSGSGTDFTLTISSLQAEDVAVYYCQQSNEDPWTFGQGTKVEIKR
notes: Human IgG1 / kappa; also called humanized AC10 variant HALC; hVH A + hVL C
B8: hAC10 HDLD (antibody, human IgG1, kappa, V domains shown)
VH: QVQLVQSGAEVKKPGASVKVSCKASGYTFTDYYITWVRQAPGQGLEWMGWIYPGSGNTKYNEKFKGRVTMTRDTSISTAYMELSRLRSDDTAVYYCANYGNYWFAYWGQGTLVTVSS
VL: DIVMTQSPDSLAVSLGERATINCKSSQSVDFDGDSYLNWYQQKPGQPPKLLIYAASNLESGVPDRFSGSGSGTDFTLTISSLQAEDVAVYYCQQSNEDPWTFGQGTKVEIKR
notes: Human IgG1 / kappa; also called humanized AC10 variant HDLD; hVH D + hVL D
B9: cAC10 (CHO) (antibody, V domains shown)
VH: QVQLVQSGAEVVKPGASVKVSCKASGYTFTDYYITWVRQAPGQGLEWMGWIYPGSGNTKYNEKFKGKATLTVDTSSSTAFMQLSSLTSEDTAVYFCANYGNYWFAYWGQGTQVTVSA
VL: DIVLTQSPASLAVSLGQRATISCKASQSVDFDGDSYMNWYQQKPGQPPKVLIYAASNLESGIPARFSGSGSGTDFTLNIHPVEEEDAATYYCQQSNEDPWTFGGGTKLEIK
notes: Human-murine chimeric AC10 expressed in CHO cells; also called chimeric AC10; chimeric monoclonal antibody AC10

These binders were tested against T1, CD30 surface antigen expressed on … (assay: competition binding on Karpas 299 cells against europium-labeled cAC10).
Procedure: (§1) The variants were tested for binding to CD30 surface antigen expressed on Karpas-299, an anaplastic large cell lymphoma cell line, using a competition binding assay in which cAC10, expressed in CHO cells, was europium labeled (see, e.g., Law et al., Cancer Research 65:8331-38 (2005)). The results, shown below in the second column of Table 6, indicate that all of the variants were able to compete with cAC10 for binding to CD30. Thus, the variants retained antigen binding activity.
In the case of B1, the EC50 is reported as 6.61 nM.
For B2, the EC50 was 6 nM.
B3 was tested, and the EC50 was 3.31 nM.
B4 showed an EC50 of 3.1 nM.
For B5, the EC50 was 5.9 nM.
With B6 the EC50 was 3.61 nM.
B7 showed an EC50 of 3.53 nM.
For B8, the EC50 was 2.25 nM.

These binders were tested against T1, CD30 surface antigen expressed on … (assay: competition binding on Karpas 299 cells against europium-labeled cAC10 (control competitor)).
Procedure: as §1
In the case of B9, the EC50 is reported as 2.9 nM.
